Experiments:
Details in all cases: both partners purified
[1] = target: T1, Sepharose 4B-coupled CaM (UniProt P0DP23 1-149, coupled to Sepharose 4B); assay: pull-down; purified GST-JMY WH2#1 or GST with immobilised CaM; IP buffer with 150 mM NaCl and 2 µM Ca2+ (1 mM EGTA for comparison); immunoblot
T1 construct: calmodulin (CaM), bought coupled to Sepharose 4B; also called immobilized CaM; CaM matrix; source: bought: GE Healthcare (coupled to Sepharose 4B)

[2] = target: rabbit skeletal muscle actin (rabbit, UniProt P68135 1-377); assay: pull-down; in vitro reconstitution: GST-JMY WH2#1 immobilised, untagged CaM and rabbit skeletal muscle α-actin together; 10 mM HEPES pH 7.4, 250 mM NaCl, 0.1 mM MgCl2, 1% Triton X-100, with 1 mM EGTA or 20 µM Ca2+; quantitative fluorescence immunoblot
[3] = target: T2, untagged recombinant CaM (UniProt P0DP23 1-149); assay: as above
T2 construct: calmodulin (CaM), subcloned from Mito-mCherry-CaM into pGEX-6P; A few vector residues probably remain after PreScission cleavage; also called calmodulin; source: E. coli BL21, purified as GST-CaM (pGEX-6P), GST removed with PreScission Protease

binding result [1]: binds | binding result [2]: binds | binding result [3]: binds
B1: GST-JMY WH2#1 (domain or fragment)
chain: GNERSIPKSASAPAAHLFDSSQLVSARKKLRKTVEGLQRRRVS
notes: Mus musculus JMY, NP_067285.2, residues 841-883 (subcloned from GFP-JMY WH2#1 into pGEX-4T1); pGEX-4T1 by surmise puts GST at the N-terminus; also called first WH2 domain of JMY and flanking regions; source: E. coli BL21, purified (glutathione sepharose)

— article PMC12098658, “JMY powers dendritogenesis and is regulated by CaM revealing a general, critical principle in neuromorphogenesis” (Communications Biology, 2025)
